According to the supplement of paper PMC12855868:

B1: library; numbered along this chain (parent)
chain: MAAAGGARLLRAASAVLGGPAGRWLHHAGSRAGSSGLLRNRGPGGSAEASRSLSVSARARSSSEDKITVHFINRDGETLTTKGKVGDSLLDVVVENNLDIDGFGACEGTLACSTCHLIFEDHIYEKLDAITDEENDMLDLAYGLTDRSRLGCQICLTKSMDNMTVRVPETVADARQSIDVGKTS

Variants of: B1
Test: scaled log2 fold change in cell abundance, elesclomol vs control (0 = silent mean, 1 = nonsense mean) (scaled log2 ratio); higher = higher viability under elesclomol (loss of FDX1 cuproptosis function)
Conditions: glucose 10 mM
[1] = with ABC1 FDX1 KO, elesclomol 5 nM, 14 days
[2] = with HEK293T FDX1 KO, elesclomol 40 nM, 11 days
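Further: variant abundance is its share of total variant reads in each endpoint sample, from next-generation sequencing of the integrated ORF PCR-amplified out of genomic DNA.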

| Variant | scaled log2 fold change [1] | scaled log2 fold change [2] |
| --- | --- | --- |
| MAAAGGARLLRAASAVLGGPAGRWLHHAGSRAGSSGLLRNRGPGGSAEASRSLSVSARARSSSEDKITVHFINRDGETLTTKGKVGDSLLDVVVENNLDIMGFGACEGTLACSTCHLIFEDHIYEKLDAITDEENDMLDLAYGLTDRSRLGCQICLTKSMDNMTVRVPETVADARQSIDVGKTS [D101M] | 0.241 | 0.684 |
| MAAAGGARLLRAASAVLGGPAGRWLHHAGSRAGSSGLLRNRGPGGSAEASRSLSVSARARSSSEDKITVHFINRDGETLTTKGKVGDSLLDVVVENNLDILGFGACEGTLACSTCHLIFEDHIYEKLDAITDEENDMLDLAYGLTDRSRLGCQICLTKSMDNMTVRVPETVADARQSIDVGKTS [D101L] | -0.471 | -0.161 |
| MAAAGGARLLRAASAVLGGPAGRWLHHAGSRAGSSGLLRNRGPGGSAEASRSLSVSARARSSSEDKITVHFINRDGETLTTKGKVGDSLLDVVVENNLDIIGFGACEGTLACSTCHLIFEDHIYEKLDAITDEENDMLDLAYGLTDRSRLGCQICLTKSMDNMTVRVPETVADARQSIDVGKTS [D101I] | -0.248 | -0.191 |
| MAAAGGARLLRAASAVLGGPAGRWLHHAGSRAGSSGLLRNRGPGGSAEASRSLSVSARARSSSEDKITVHFINRDGETLTTKGKVGDSLLDVVVENNLDIKGFGACEGTLACSTCHLIFEDHIYEKLDAITDEENDMLDLAYGLTDRSRLGCQICLTKSMDNMTVRVPETVADARQSIDVGKTS [D101K] | 0.0609 | 0.803 |
| MAAAGGARLLRAASAVLGGPAGRWLHHAGSRAGSSGLLRNRGPGGSAEASRSLSVSARARSSSEDKITVHFINRDGETLTTKGKVGDSLLDVVVENNLDIHGFGACEGTLACSTCHLIFEDHIYEKLDAITDEENDMLDLAYGLTDRSRLGCQICLTKSMDNMTVRVPETVADARQSIDVGKTS [D101H] | -0.018 | -0.455 |
| MAAAGGARLLRAASAVLGGPAGRWLHHAGSRAGSSGLLRNRGPGGSAEASRSLSVSARARSSSEDKITVHFINRDGETLTTKGKVGDSLLDVVVENNLDIFGFGACEGTLACSTCHLIFEDHIYEKLDAITDEENDMLDLAYGLTDRSRLGCQICLTKSMDNMTVRVPETVADARQSIDVGKTS [D101F] | -0.332 | 0.0209 |
| MAAAGGARLLRAASAVLGGPAGRWLHHAGSRAGSSGLLRNRGPGGSAEASRSLSVSARARSSSEDKITVHFINRDGETLTTKGKVGDSLLDVVVENNLDIGGFGACEGTLACSTCHLIFEDHIYEKLDAITDEENDMLDLAYGLTDRSRLGCQICLTKSMDNMTVRVPETVADARQSIDVGKTS [D101G] | 0.085 | -0.787 |
| MAAAGGARLLRAASAVLGGPAGRWLHHAGSRAGSSGLLRNRGPGGSAEASRSLSVSARARSSSEDKITVHFINRDGETLTTKGKVGDSLLDVVVENNLDIEGFGACEGTLACSTCHLIFEDHIYEKLDAITDEENDMLDLAYGLTDRSRLGCQICLTKSMDNMTVRVPETVADARQSIDVGKTS [D101E] | 0.0987 | -0.481 |
